{"source": "patent EP1644414B1", "binders": {"B1": {"name": "SC03-026 (scFv)", "scFv": "AMAQVQLVQSGGGLVQPGGSLRLSCAASGFTFSSYAMHWVRQAPGKGLEYVSGISSNGGSTYYANSVKGRFTISRDNSKNTLYLQMGSLRAEDMAVYYCARTTNRAFDIWGQGTMVTVSSGTGGSGGTGSGTGGSTDIQMTQSPDSLAVSLGERATINCKSSQSILYSSNSKNYLGWYQQKPGQPPKLLIYWASTRESGVPDRFSGSGSGTDFTLTISSLQAEDVAVYYCQQYYSTPYSFGQGTKVEIKRAA"}}, "target": "UV-inactivated SARS-CoV preparation (Frankfurt 1 strain) (SARS-CoV strain Frankfurt 1)", "experiment": "phage ELISA, plate 2 (no phage 0.211)"}
{"binder": "B1", "values": [{"measurement": "OD492nm", "value": 1.07, "unit": "OD492nm"}]}
